This is an account of results in IntAct's records for PubMed 21102444.

The labels stand for the following.
B1: Elongation factor 1 alpha-like protein (Saccharomyces cerevisiae), P32769 (parent)
chain: MAYSDYSDGADDMPDFHDEGEFDDYLNDDEYDLMNEVFPTLKAQLQDYQGWDNLSLKLALFDNNFDLESTLAELKKTLKKKKTPKKPIAAANGSANVTQKLANISISQQRPNDRLPDWLDEEESEGERNGEEANDEKTVQRYYKTTVPTKPKKPHDISAFVKSALPHLSFVVLGHVDAGKSTLMGRLLYDLNIVNQSQLRKLQRESETMGKSSFKFAWIMDQTNEERERGVTVSICTSHFSTHRANFTIVDAPGHRDFVPNAIMGISQADMAILCVDCSTNAFESGFDLDGQTKEHMLLASSLGIHNLIIAMNKMDNVDWSQQRFEEIKSKLLPYLVDIGFFEDNINWVPISGFSGEGVYKIEYTDEVRQWYNGPNLMSTLENAAFKISKENEGINKDDPFLFSVLEIIPSKKTSNDLALVSGKLESGSIQPGESLTIYPSEQSCIVDKIQVGSQQGQSTNHEETDVAIKGDFVTLKLRKAYPEDIQNGDLAASVDYSSIHSAQCFVLELTTFDMNRPLLPGTPFILFIGVKEQPARIKRLISFIDKGNTASKKKIRHLGSKQRAFVEIELIEVKRWIPLLTAHENDRLGRVVLRKDGRTIAAGKISEITQ
partner: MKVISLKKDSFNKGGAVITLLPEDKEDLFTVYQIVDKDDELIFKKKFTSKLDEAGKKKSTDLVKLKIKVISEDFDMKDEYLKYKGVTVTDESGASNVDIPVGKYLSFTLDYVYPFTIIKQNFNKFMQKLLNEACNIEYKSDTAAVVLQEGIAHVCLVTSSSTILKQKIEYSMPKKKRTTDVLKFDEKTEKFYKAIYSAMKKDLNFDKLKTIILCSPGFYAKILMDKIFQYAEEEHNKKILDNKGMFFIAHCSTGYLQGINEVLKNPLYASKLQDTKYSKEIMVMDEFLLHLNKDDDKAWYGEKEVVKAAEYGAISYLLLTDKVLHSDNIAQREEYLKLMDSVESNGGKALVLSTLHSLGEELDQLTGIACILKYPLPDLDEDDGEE
B2: Protein DOM34 (Saccharomyces cerevisiae), P33309 (parent)
chain: B1 partner
partner: B1 chain

One test covers variants of B1. Conditions: with dom34_yeast DOM34, P33309.
Take R557A;H558A: the “effect of a mutation on the interaction” value is on record as “disrupting interaction”. Consider R256A;D257A;F258A, for which the “effect of a mutation on the interaction” value is “disrupting interaction”. Consider L520R, for which the “effect of a mutation on the interaction” value is on record as “disrupting interaction”. Same read-out and setting: for R517E the value was “disrupting interaction”.

Another test covers variants of B2. Particulars: with hbs1_yeast HBS1, P32769.
As for MKVISLKKDSFNKGGAVITLLPEDKEDLFTVYQIVDKDDELIFKKKFTSKLDEAGKKKSTDLVKLKIKVISEDFDMKDEYLKYKGVTVTDESGASNVDIPVGKYLSFTLDYVYPFTIIKQNFNKFMQKLLNEACNIEYKSDTAAVVLQEGIAHVCLVTSSSTILKQKIEYSMPKKKRTTDVLKFDEKTEKFYKAIYSAMKKDLNFDKLKTIILCAAGAYAKILMDKIFQYAEEEHNKKILDNKGMFFIAHCSTGYLQGINEVLKNPLYASKLQDTKYSKEIMVMDEFLLHLNKDDDKAWYGEKEVVKAAEYGAISYLLLTDKVLHSDNIAQREEYLKLMDSVESNGGKALVLSTLHSLGEELDQLTGIACILKYPLPDLDEDDGEE [S215A;P216A;F218A], the “effect of a mutation on the interaction” value is “disrupting interaction”. Take MKVISLKKDSFNKGGAVITLLPEDKEDLFTVYQIVDKDDELIFKKKFTSKLDEAGKKKSTDLVKLKIKVISEDFDMKDEYLKYKGVTVTDESGASNVDIPVGKYLSFTLDYVYPFTIIKQNFNKFMQKLLNEACNIEYKSDTAAVVLQEGIAHVCLVTSSSTILKQKIEYSMPKKKRTTDVLKFDEKTEKFYKAIYSAMKKDLNFDKLKTIILCSPGFYAKILMDKIFQYAEEEHNKKILDNKGMFFIAHCSTGYLQGINEVLKNPLYASKLQDTKYSKEIMVMDEFLLHLNKDDDKAWYGEKEVVKAAEYGAISYLLLTDKVLHSDNIAQREEYLKLMDSVESNGGKALVLSTLHSLGERLDQLTGIACILKYPLPDLDEDDGEE [E361R]: the “effect of a mutation on the interaction” value is “disrupting interaction”. Same read-out and setting: for MKVISLKKDSFNKGGAVITLLPEDKEDLFTVYQIVDKDDELIFKKKFTSKLDEAGKKKSTDLVKLKIKVISEDFDMKDEYLKYKGVTVTDESGASNVDIPVGKYLSFTLDYVYPFTIIKQNFNKFMQKLLNEACNIEYKSDTAAVVLQEGIAHVCLVTSSSTILKQKIEYSMPKKKRTTDVLKFDEKTEKFYKAIYSAMKKDLNFDKLKTIILCSPGFYAKILMDKIFQYAEEEHNKKILDNKGMFFIAHCSTGYLQGINEVLKNPLYASKLQDTKYSKEIMVMDEFLLHLNKDDDKAWAGEKEVVKAAEYGAISYLLLTDKVLHSDNIAQREEYLKLMDSVESNGGKALVLSTLHSLGEALDQLTGIACILKYPLPDLDEDDGEE [Y300A;E361A] the value was “disrupting interaction”. In the case of MKVISLKKDSFNKGGAVITLLPEDKEDLFTVYQIVDKDDELIFKKKFTSKLDEAGKKKSTDLVKLKIKVISEDFDMKDEYLKYKGVTVTDESGASNVDIPVGKYLSFTLDYVYPFTIIKQNFNKFMQKLLNEACNIEYKSDTAAVVLQEGIAHVCLVTSSSTILKQKIEYSMPAAAATTDVLKFDEKTEKFYKAIYSAMKKDLNFDKLKTIILCSPGFYAKILMDKIFQYAEEEHNKKILDNKGMFFIAHCSTGYLQGINEVLKNPLYASKLQDTKYSKEIMVMDEFLLHLNKDDDKAWYGEKEVVKAAEYGAISYLLLTDKVLHSDNIAQREEYLKLMDSVESNGGKALVLSTLHSLGEELDQLTGIACILKYPLPDLDEDDGEE [K174A;K175A;K176A;R177A], the “effect of a mutation on the interaction” value is listed as “disrupting interaction”. Same read-out and setting: for MKVISLKKDSFNKGGAVITLLPEDKEDLFTVYQIVDKDDELIFKKKFTSKLDEAGKKKSTDLVKLKIKVISEDFDMKDEYLKYKGVTVTDESGASNVDIPVGKYLSFTLDYVYPFTIIKQNFNKFMQKLLNEACNIEYKSDTAAVVLQEGIAHVCLVTSSSTILKQKIEYSMPKKKRTTDVLKFDEKTEKFYKAIYSAMKKDLNFDKLKTIILCSPGFYAKILMDKIFQYAEEEHNKKILDNKGMFFIAHCSTGYLQGINEVLKNPLYASKLQDTKYSKEIMVMDEFLLHLNKDDDKAWYGEKEVVKAAEYGAISYLLLTDKVLHSDNIAQREEYLKLMDSVESNGGKALVLSTLHSLGEALDALTGIACILKYPLPDLDEDDGEE [E361A;Q364A] the value was “disrupting interaction”.
